The target of series [1] is SUMO-HSV-1 peptide AB (herpes simplex virus type 1 (HSV-1)). As to the kind of experiment: ITC. (In general: In ITC the heat of successive injections is recorded.)
The test system of series [2] is pcGAS. The format is biochemical, porcine. As to conditions: pH 7.5.
The target in a further series is T1, PRV US1 (pseudorabies virus, UniProt A0AAX7FDV8 1-364).
T1 sequence: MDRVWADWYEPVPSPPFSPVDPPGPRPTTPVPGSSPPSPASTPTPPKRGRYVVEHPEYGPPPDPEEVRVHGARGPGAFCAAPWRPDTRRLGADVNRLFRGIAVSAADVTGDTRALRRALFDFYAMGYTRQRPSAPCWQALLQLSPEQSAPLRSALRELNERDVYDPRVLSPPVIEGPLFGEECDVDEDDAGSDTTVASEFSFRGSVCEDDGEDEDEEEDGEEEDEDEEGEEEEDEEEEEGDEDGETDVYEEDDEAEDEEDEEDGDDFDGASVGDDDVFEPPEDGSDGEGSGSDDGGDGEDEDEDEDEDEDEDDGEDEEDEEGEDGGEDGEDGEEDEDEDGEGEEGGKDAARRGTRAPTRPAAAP
Put plainly: EMSA; molar ratio 0-16; EMSA: 2.5 uM ISD45, DNA:protein molar ratio 1:0 to 1:32, 0.8% agarose, 40 mM Tris-HCl pH 9.2 running buffer, 110 V, ethidium bromide; binding buffer and temperature not stated (protein stock 20 mM Tris-HCl pH 7.5, 150 mM NaCl, 5 mM DTT). As to conditions: protein: recombinant; tags: His6-SUMO removed; blunt.

Another series concerns the target hcGAS (Homo sapiens? (human), UniProt Q8N884 1-522). Put plainly: EMSA; no US1; EMSA: 2.5 uM ISD45, DNA:protein molar ratio 1:0 to 1:32, 0.8% agarose, 40 mM Tris-HCl pH 9.2 running buffer, 110 V, ethidium bromide; binding buffer and temperature not stated (protein stock 20 mM Tris-HCl pH 7.5, 150 mM NaCl, 5 mM DTT). As to conditions: protein: recombinant; tags: N-terminal Flag, C-terminal HA; His6-SUMO removed; blunt. Background: In EMSA bound probe runs differently from free probe, usually more slowly.

The target in series [3] is T2, pcGAS (Sus scrofa? (porcine), UniProt I3LM39 1-495).
T2 sequence: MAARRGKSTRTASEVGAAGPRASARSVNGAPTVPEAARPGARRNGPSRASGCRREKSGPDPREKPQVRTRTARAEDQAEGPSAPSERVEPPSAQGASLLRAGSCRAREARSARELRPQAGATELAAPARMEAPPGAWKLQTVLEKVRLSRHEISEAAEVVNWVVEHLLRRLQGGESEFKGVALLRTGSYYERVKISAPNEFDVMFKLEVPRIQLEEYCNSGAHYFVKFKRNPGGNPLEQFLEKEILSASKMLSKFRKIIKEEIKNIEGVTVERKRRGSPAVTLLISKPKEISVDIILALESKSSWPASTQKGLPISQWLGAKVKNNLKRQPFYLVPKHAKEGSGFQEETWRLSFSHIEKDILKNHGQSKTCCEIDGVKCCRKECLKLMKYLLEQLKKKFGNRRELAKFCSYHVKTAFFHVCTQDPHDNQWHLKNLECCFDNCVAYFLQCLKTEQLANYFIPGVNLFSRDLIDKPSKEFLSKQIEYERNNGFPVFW
The series is described as above. As to conditions: protein: recombinant; tags: N-terminal Flag, C-terminal HA; His6-SUMO removed; blunt.

A further series has as its target T3, pcGASCT (Sus scrofa? (porcine), UniProt I3LM39 145-495).
T3 sequence: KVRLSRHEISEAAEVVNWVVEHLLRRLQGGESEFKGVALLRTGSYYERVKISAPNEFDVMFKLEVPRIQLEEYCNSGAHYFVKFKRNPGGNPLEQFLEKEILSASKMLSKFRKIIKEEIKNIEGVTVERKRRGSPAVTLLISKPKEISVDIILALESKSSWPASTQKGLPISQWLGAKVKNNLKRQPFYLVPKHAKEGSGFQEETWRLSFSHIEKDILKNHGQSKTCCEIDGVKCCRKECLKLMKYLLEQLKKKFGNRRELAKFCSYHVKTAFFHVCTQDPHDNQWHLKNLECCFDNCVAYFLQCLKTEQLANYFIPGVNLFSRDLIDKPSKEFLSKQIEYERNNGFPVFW
Described as above. As to conditions: protein: recombinant; tags: Flag/HA double tag vector; His6-SUMO; blunt.

In another series the target is mcGAS (Mus musculus? (mouse), UniProt Q8C6L5 1-507). The description is as above. As to conditions: protein: recombinant; tags: N-terminal Flag, C-terminal HA; His6-SUMO removed; chain copies: 2; blunt.
A further series addresses T4, pcGASNT (Sus scrofa? (porcine), UniProt I3LM39 1-134).
T4 sequence: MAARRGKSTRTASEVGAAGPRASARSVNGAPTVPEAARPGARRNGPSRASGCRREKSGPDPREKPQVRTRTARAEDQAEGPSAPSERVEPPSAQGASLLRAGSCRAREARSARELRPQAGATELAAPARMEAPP
Described as above. As to conditions: protein: recombinant; tags: Flag/HA double tag vector; His6-SUMO; blunt.

mcGAS, sequence (Q8C6L5 whole entry): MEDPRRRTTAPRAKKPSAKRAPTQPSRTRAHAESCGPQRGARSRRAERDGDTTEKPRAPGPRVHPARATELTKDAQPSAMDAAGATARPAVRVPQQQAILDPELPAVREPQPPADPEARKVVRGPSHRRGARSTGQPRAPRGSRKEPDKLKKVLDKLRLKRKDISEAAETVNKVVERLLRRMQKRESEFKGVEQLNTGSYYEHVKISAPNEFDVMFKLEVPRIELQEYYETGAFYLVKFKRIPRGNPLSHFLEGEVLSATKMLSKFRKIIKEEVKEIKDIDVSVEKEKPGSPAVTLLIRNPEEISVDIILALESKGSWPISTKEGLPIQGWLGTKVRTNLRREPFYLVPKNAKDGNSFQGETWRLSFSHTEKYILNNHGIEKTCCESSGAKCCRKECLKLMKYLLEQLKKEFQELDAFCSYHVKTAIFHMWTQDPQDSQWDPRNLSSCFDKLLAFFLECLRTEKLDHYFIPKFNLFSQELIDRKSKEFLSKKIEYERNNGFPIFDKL
hcGAS, sequence (Q8N884 whole entry): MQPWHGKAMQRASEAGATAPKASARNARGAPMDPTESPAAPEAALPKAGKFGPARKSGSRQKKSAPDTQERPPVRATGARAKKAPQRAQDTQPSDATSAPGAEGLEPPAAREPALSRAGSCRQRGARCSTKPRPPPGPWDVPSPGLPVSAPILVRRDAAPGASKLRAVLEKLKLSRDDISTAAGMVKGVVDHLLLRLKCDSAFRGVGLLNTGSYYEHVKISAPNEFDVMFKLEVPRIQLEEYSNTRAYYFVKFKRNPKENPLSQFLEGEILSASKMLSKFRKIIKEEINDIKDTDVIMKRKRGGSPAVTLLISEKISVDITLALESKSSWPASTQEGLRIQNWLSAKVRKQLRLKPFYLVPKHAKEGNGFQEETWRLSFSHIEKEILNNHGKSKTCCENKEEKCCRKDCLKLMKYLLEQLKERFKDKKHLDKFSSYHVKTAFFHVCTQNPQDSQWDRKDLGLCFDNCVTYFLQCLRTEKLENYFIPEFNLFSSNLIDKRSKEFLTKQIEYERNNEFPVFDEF

Usually Kd stands for the equilibrium constant for the complex coming apart. A high value points to weaker binding. In series [1], “pcGAS^CT (C-terminus, catalytic domain of porcine cGAS) (domain or fragment)” gave a Kd of 2.85 µM.
Take AWKLQT [random peptide]: in the series with pcGAS [2], the “effect on cGAS enzymatic activity / cGAMP synthesis” value is recorded as “neither peptide A nor peptide B, nor the random peptide inhibited cGAMP synthesis”.
In the case of “hcGAS^CT (C-terminus, catalytic domain of human cGAS) (domain or fragment)”, the Kd in series [1] was 15.7 µM.

B1: ISD45 (dsDNA)
DNA 1: TACAGATCTACTAGTGATCTATGACTGATCTGTACATGATCTACA
DNA 2: TGTAGATCATGTACAGATCAGTCATAGATCACTAGTAGATCTGTA
For B1, the binding result is “no binding” with PRV US1; “binds” with hcGAS; “binds” with pcGAS [3]; “binds” with pcGASCT; “binds” with mcGAS; “binds” with pcGASNT.

These data come from publication PMC12604781 (PLOS Pathogens, 2025).
